Data set [1] concerns the molecule itself. Kind of data set: SEC-MALS; proteins in isolation, 5-20 mg/ml; Superdex 200 Increase, 20 mM Tris pH 8.0, 150 mM KCl, 2 mM DTT. On the technique in general: In gel filtration, larger molecules generally elute earlier.
The target in data set [2] is T1, SYCP1αNcore (amino-acids 206-362) (human, UniProt Q15431 206-362).
T1 construct: SYCP1 αNcore (tetrameric core), amino-acids 206-362; Tetramer alone (SEC-MALS); two chains in the 2:1 complex with SYCE3; also called SYCP1 tetrameric core; source: E. coli BL21(DE3), purified alone or co-expressed and co-purified with SYCE3 (amylose, TEV, anion exchange, SEC); not shown: MBP, N-terminal, cleaved
T1 sequence (looked up): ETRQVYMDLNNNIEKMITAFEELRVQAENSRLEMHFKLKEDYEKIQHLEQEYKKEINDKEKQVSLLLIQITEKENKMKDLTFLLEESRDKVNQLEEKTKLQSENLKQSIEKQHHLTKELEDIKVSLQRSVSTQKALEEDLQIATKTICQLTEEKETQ
Kind of data set: ITC; SYCE3 (400 μM) injected into SYCP1αNcore (70 μM) at 30°C; 25 mM Tris pH 8.0, 250 mM KCl, 2 mM DTT; apparent affinity. Particulars: both partners purified. Background: Isothermal titration calorimetry measures the heat released or taken up as one component is titrated into another.

The next data set has as its target T2, SYCE2-TEX12core (human, UniProt Q6PIF2 57-165; Q9BXU0 49-123, RED dye (Monolith NT Protein Labelling Kit RED) in the MST only; which chain not stated | RED dye (Monolith NT Protein Labelling Kit RED) in the MST only; which chain not stated).
T2 construct: SYCE2 core; TEX12 core; Unlabelled in the SEC, labelled in the MST; source: E. coli BL21(DE3), purified
T2 sequence (looked up) 1: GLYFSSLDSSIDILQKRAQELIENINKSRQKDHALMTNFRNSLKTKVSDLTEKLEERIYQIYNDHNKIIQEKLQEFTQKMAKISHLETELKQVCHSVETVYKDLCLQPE
T2 sequence (looked up) 2: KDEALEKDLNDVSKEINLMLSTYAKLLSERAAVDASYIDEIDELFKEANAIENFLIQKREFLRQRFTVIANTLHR
Kind of data set: MST; SYCE3 titrated into 150 nM labelled SYCE2-TEX12core; Monolith NT.115, excitation and MST power 40 %; apparent affinity. Particulars: both partners purified.

Data set [3] has as its target T3, SYCP1 αCore-ΔNtip (amino-acids 112-783) (human, UniProt Q15431 112-783).
T3 construct: SYCP1 α-helical core without the αNtip, amino-acids 112-783; also called SYCP1's full α-helical core, in which αNtips were deleted; source: E. coli BL21(DE3), purified, alone or in complex with SYCE3
T3 sequence (looked up): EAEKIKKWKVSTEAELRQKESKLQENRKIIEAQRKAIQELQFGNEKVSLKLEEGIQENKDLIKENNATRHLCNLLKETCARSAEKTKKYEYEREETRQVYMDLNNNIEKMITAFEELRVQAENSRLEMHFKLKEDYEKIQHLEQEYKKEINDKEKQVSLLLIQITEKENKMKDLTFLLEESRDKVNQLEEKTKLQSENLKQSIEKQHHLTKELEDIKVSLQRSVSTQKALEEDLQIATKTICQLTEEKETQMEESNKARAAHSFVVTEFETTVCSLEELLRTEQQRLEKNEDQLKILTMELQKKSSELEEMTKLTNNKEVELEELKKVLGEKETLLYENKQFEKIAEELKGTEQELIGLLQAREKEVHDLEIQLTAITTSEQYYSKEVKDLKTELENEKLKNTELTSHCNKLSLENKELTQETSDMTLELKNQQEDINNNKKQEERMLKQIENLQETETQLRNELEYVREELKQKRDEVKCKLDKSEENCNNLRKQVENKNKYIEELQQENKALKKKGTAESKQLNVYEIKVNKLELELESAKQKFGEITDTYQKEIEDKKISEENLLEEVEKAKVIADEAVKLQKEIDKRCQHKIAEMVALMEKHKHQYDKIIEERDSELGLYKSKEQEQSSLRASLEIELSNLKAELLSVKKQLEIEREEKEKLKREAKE
Kind of data set: SEC-MALS; co-expressed and co-purified SYCP1-SYCE3 complexes, 5-20 mg/ml; 20 mM Tris pH 8.0, 150 mM KCl, 2 mM DTT (Superose 6 Increase for MBP-SYCP1αN-His-SYCE3). Particulars: both partners purified.

The target of data set [4] is T4, SYCP1αN (amino-acids 101-362) (human, UniProt Q15431 101-362).
T4 construct: SYCP1 α-helical N-terminal region, amino-acids 101-362; source: E. coli BL21(DE3), purified, alone or co-expressed and co-purified with SYCE3
T4 sequence (looked up): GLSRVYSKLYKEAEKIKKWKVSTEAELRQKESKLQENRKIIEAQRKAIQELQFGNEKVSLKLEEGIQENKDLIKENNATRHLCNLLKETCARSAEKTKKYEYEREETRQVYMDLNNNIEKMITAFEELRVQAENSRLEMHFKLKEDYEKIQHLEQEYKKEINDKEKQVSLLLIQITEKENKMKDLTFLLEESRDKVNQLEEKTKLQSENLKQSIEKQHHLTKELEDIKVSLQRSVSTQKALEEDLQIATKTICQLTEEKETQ
The description is as above. Particulars: both partners purified.

In a further data set the target is T5, SYCP1αN ΔNtip (human, UniProt Q15431 112-362).
T5 construct: SYCP1αN (101-362) with the αNtip (101-111) deleted; also called SYCP1 ΔNtip; source: E. coli BL21(DE3), co-purified with SYCE3
T5 sequence (looked up): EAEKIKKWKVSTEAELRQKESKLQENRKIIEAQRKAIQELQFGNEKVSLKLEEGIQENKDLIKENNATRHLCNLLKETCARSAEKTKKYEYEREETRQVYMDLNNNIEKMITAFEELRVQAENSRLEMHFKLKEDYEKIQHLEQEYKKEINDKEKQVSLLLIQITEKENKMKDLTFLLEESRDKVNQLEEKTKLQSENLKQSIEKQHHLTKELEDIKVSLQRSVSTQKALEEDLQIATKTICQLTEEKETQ
Described as above. The conditions noted are these: both partners purified.

The next data set deals with T6, SYCP1αN V105E L109E (human, UniProt Q15431 101-362, V105E | L109E).
T6 construct: SYCP1αN, amino-acids 101-362, with V105E L109E; source: E. coli BL21(DE3), in complex with SYCE3
T6 sequence (looked up): T4 sequence (looked up) with V5E, L9E
Described as above. The conditions noted are these: both partners purified.

Data set [5] concerns the target T1, SYCP1αNcore (amino-acids 206-362). Described as above. The conditions noted are these: both partners purified.

Residue numbers refer to the chain shown, from its start. “And” between values parts separate entries of the source, which are not always exact repeats. Equal values may be shown once.

One may read the stoichiometry N as a count of units in the complex or per binding partner.

B1: SYCE3 (natural protein, human, UniProt A1L190 1-88, looked up)
chain: MDDADPEERNYDNMLKMLSDLNKDLEKLLEEMEKISVQATWMAYDMVVMRTNPTLAESMRRLEDAFVNCKEEMEKNWQELLHETKQRL
notes: SYCE3 without a stated truncation; Dimer alone (SEC-MALS); one chain in the 2:1 complex with SYCP1; also called SYCE3 wild-type; free SYCE3; source: E. coli BL21(DE3), purified (Ni-NTA or amylose, TEV, anion exchange, SEC), alone or co-purified with SYCP1 constructs; not shown: His or His-MBP, N-terminal, cleaved
Regarding B1, the “stoichiometry N” value was 2 in data set [1]; 2 SYCP1 chains per SYCE3 chain in data set [3]; 2 SYCP1 chains per SYCE3 chain (2:1) and 4 SYCP1 chains with 2 SYCE3 chains (4:2) in data set [4]; 2 SYCP1 chains per SYCE3 chain with SYCP1αN ΔNtip; 2 SYCP1 chains per SYCE3 chain in the data set with SYCP1αN V105E L109E; 2 SYCP1 chains per SYCE3 chain in data set [5]. Moreover, the results for the Kd (in data set [2]; with SYCE2-TEX12core) were 170 nM and 21.8 µM, respectively. In addition, the “apparent KD of one replicate” value in data set [2] is 230 nM and 120 nM and 160 nM.

The values above are taken from article PMC7614228, “Structural maturation of SYCP1-mediated meiotic chromosome synapsis by SYCE3” (Nature structural & molecular biology, 2023).
